Target: AbmU (Streptomyces koyangensis SCSIO 5802)
Assay: crystal structure

stoichiometry N: 2
Substance: AbmU (enzyme)

From paper PMC7439702
